Results: article PMC7111274

How the values were obtained:
Test in all cases: SEC
[1] = target: PEDV 3CL^pro variant R294A (porcine epidemic diarrhea virus (FJZZ strain))
[2] = target: PEDV 3CL^pro variant S138A (porcine epidemic diarrhea virus (FJZZ strain))
[3] = target: PEDV 3CL^pro variant Q295A (porcine epidemic diarrhea virus (FJZZ strain))
[4] = target: PEDV 3CL^pro variant R4A (porcine epidemic diarrhea virus (FJZZ strain))

**Q.** For PEDV 3CL^pro variant R294A (enzyme), which stoichiometry N [1] is on record?
**A.** 2

**Q.** How did the stoichiometry N [2] turn out when PEDV 3CL^pro variant S138A (enzyme) was run?
**A.** 2

**Q.** With PEDV 3CL^pro variant Q295A (enzyme) as the substance, how does the stoichiometry N [3] read?
**A.** 2

**Q.** With PEDV 3CL^pro variant R4A (enzyme) as the substance, how does the stoichiometry N [4] read?
**A.** 2
